PMC13233820 (2026)

Experiments:
[1] = target: T1, yeast Smt3 (Smt3-6xHis) (S. cerevisiae, UniProt Q12306 1-101 = SUMO, U-[13C,15N] labelled in the NMR experiments); assay: ITC; Smt3 150 uM
T1 chain: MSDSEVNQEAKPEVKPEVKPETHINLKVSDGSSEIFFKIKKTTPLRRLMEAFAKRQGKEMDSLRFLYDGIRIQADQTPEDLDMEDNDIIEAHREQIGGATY

[2] = target: T1, yeast Smt3 (Smt3-6xHis); assay: ITC; Smt3 300 uM

Q: What does the source list for ENDIIMVSTDE [synthetic Mre11-SIM3 peptide, wild type]?
A: Kd [1]: 30.2 µM; Kd [2]: 15.3 µM
